# Data from the Immune Epitope Database (IEDB).
# How the values were obtained:
# HLA-A*02:01 [1] = experiment: IEDB peptide-MHC binding, purified MHC/competitive/fluorescence; ≥ and ≤ were set here for values at or beyond the usual limits of such assays
# HLA-A*24:02 = experiment: as above
# HLA-A*26:01 = experiment: IEDB peptide-MHC binding, purified MHC/direct/fluorescence; filed as Kd, often an IC50 or EC50 that approximates it; ≥ and ≤ were set here for values at or beyond the usual limits of such assays
# HLA-B*15:01 = experiment: as above
# HLA-A*02:01 [2] = experiment: as above
# HLA-B*08:01 = experiment: as above
# HLA-B*40:01 = experiment: as above
# HLA-A*69:01 = experiment: as above
# HLA-A*11:01 = experiment: as above
# HLA-B*07:02 [3] = experiment: as above
# HLA-A*31:01 = experiment: as above
# HLA-B*44:02 = experiment: as above
# HLA-B*27:05 = experiment: as above
# HLA-A*03:01 = experiment: as above
# HLA-B*58:01 = experiment: as above
# HLA-A*01:01 = experiment: as above
# HLA-B*07:02 [4] = experiment: IEDB peptide-MHC binding, purified MHC/competitive/radioactivity; filed as Kd, often an IC50 or EC50 that approximates it; ≥ and ≤ were set here for values at or beyond the usual limits of such assays
# HLA-A*24:03 = experiment: IEDB peptide-MHC binding, purified MHC/direct/fluorescence; filed as Kd, often an IC50 or EC50 that approximates it; ≥ and ≤ were set here for values at or beyond the usual limits of such assays
# HLA-B*51:01 = experiment: IEDB peptide-MHC binding, purified MHC/competitive/radioactivity; filed as Kd, often an IC50 or EC50 that approximates it; ≥ and ≤ were set here for values at or beyond the usual limits of such assays
# HLA-B*53:01 = experiment: as above; settings: source organism: Dengue virus 2 Jamaica/1409/1983
# HLA-A*02:12 = experiment: IEDB peptide-MHC binding, purified MHC/direct/fluorescence; filed as Kd, often an IC50 or EC50 that approximates it; ≥ and ≤ were set here for values at or beyond the usual limits of such assays; settings: source organism: Mycobacterium tuberculosis str. Haarlem
# [5] = source organism: Vaccinia virus WR
# [6] = source organism: Giardia lamblia ATCC 50803
# [7] = source organism: Zaire ebolavirus
# [8] = source organism: Dengue virus 2 Jamaica/1409/1983
# [9] = source organism: Pseudomonas viridiflava
# [10] = source organism: Vibrio parahaemolyticus
# [11] = source organism: Coxiella burnetii
# [12] = source organism: Dengue virus 4 Philippines/H241/1956
sequence,measurement,setting,value
GGILPWTKI,IC50,HLA-A*02:01 [1]; [5],≥ 125 µM
same,IC50,HLA-A*24:02; [5],≥ 78.1 µM
IHKPRPPAT,Kd,HLA-A*26:01; [6],≥ 20 µM
same,Kd,HLA-B*15:01; [6],≥ 20 µM
same,Kd,HLA-A*02:01 [2]; [6],≥ 20 µM
same,Kd,HLA-B*08:01; [6],≥ 20 µM
same,Kd,HLA-B*40:01; [6],≥ 20 µM
same,Kd,HLA-A*69:01; [6],≥ 20 µM
same,Kd,HLA-A*11:01; [6],≥ 20 µM
same,Kd,HLA-B*07:02 [3]; [6],≥ 20 µM
same,Kd,HLA-A*31:01; [6],≥ 20 µM
same,Kd,HLA-B*44:02; [6],≥ 20 µM
same,Kd,HLA-B*27:05; [6],≥ 20 µM
same,Kd,HLA-A*03:01; [6],≥ 20 µM
same,Kd,HLA-B*58:01; [6],≥ 20 µM
same,Kd,HLA-A*01:01; [6],≥ 20 µM
DPSSGYYST,IC50,HLA-A*24:02; [7],≥ 151 µM
SFLLMLCLH,IC50,HLA-A*24:02; [7],≥ 266 µM
NPWMEDKTPV,Kd,HLA-B*07:02 [4]; [8],0.0557 µM
PYFGPGAEG,IC50,HLA-A*24:02; source organism: Sudan ebolavirus,≥ 114 µM
DYDQRDYGF,Kd,HLA-A*26:01; [9],≥ 20 µM
same,Kd,HLA-B*15:01; [9],≥ 20 µM
same,Kd,HLA-A*02:01 [2]; [9],≥ 20 µM
same,Kd,HLA-B*08:01; [9],≥ 20 µM
same,Kd,HLA-B*40:01; [9],≥ 20 µM
same,Kd,HLA-A*69:01; [9],≥ 20 µM
same,Kd,HLA-A*11:01; [9],≥ 20 µM
same,Kd,HLA-B*07:02 [3]; [9],≥ 20 µM
same,Kd,HLA-A*31:01; [9],≥ 20 µM
same,Kd,HLA-A*24:03; [9],≥ 20 µM
same,Kd,HLA-B*27:05; [9],≥ 20 µM
same,Kd,HLA-A*03:01; [9],≥ 20 µM
same,Kd,HLA-B*58:01; [9],≥ 20 µM
same,Kd,HLA-A*01:01; [9],≥ 20 µM
SPKRLSAAIG,Kd,HLA-B*07:02 [4]; source organism: Dengue virus 1 Brazil/97-11/1997,0.125 µM
MPSVIEKMET,Kd,HLA-B*51:01; [8],9.48 µM
same,Kd,HLA-B*53:01,1.61 µM
EIPGSPGSY,Kd,HLA-A*26:01; [10],0.105 µM
same,Kd,HLA-B*15:01; [10],≥ 20 µM
same,Kd,HLA-A*02:01 [2]; [10],≥ 20 µM
same,Kd,HLA-B*08:01; [10],≥ 20 µM
same,Kd,HLA-B*40:01; [10],≥ 20 µM
same,Kd,HLA-A*69:01; [10],≥ 20 µM
same,Kd,HLA-A*11:01; [10],≥ 20 µM
same,Kd,HLA-B*07:02 [3]; [10],≥ 20 µM
same,Kd,HLA-A*31:01; [10],≥ 20 µM
same,Kd,HLA-B*44:02; [10],≥ 20 µM
same,Kd,HLA-B*27:05; [10],≥ 20 µM
same,Kd,HLA-A*03:01; [10],≥ 20 µM
same,Kd,HLA-B*58:01; [10],≥ 20 µM
same,Kd,HLA-A*01:01; [10],≥ 20 µM
RWGGTCHIL,IC50,HLA-A*24:02; [7],0.0556 µM
RPGYHTQTA,Kd,HLA-B*07:02 [4]; [8],0.00961 µM
FLLQLNETI,IC50,HLA-A*02:01 [1]; [7],0.33 µM
same,IC50,HLA-A*24:02; [7],0.862 µM
YYYNFSEDL,Kd,HLA-A*26:01; [11],≥ 20 µM
same,Kd,HLA-B*15:01; [11],≥ 20 µM
same,Kd,HLA-A*02:01 [2]; [11],≥ 20 µM
same,Kd,HLA-B*08:01; [11],≥ 20 µM
same,Kd,HLA-B*40:01; [11],≥ 20 µM
same,Kd,HLA-A*69:01; [11],≥ 20 µM
same,Kd,HLA-A*11:01; [11],≥ 20 µM
same,Kd,HLA-B*07:02 [3]; [11],≥ 20 µM
same,Kd,HLA-A*24:03; [11],0.00105 µM
same,Kd,HLA-B*44:02; [11],≥ 20 µM
same,Kd,HLA-B*27:05; [11],≥ 20 µM
same,Kd,HLA-A*03:01; [11],≥ 20 µM
same,Kd,HLA-B*58:01; [11],≥ 20 µM
same,Kd,HLA-A*01:01; [11],≥ 20 µM
WLSQTTLSV,Kd,HLA-A*02:12,0.003 µM
QPQWIAASII,Kd,HLA-B*07:02 [4]; [12],0.291 µM
same,Kd,HLA-B*51:01; [12],0.719 µM
TPFAEYTNSV,Kd,HLA-B*07:02 [4]; [12],0.0729 µM
same,Kd,HLA-B*51:01; [12],0.813 µM
